Laboratory results reported in the nanobody polyreactivity screen of Harvey et al. (2022).

Experiment: yeast display, Sf9 membrane polyspecificity reagent, FACS + sequencing; frameworks hold sequencing errors
Method in brief: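 Synthetic nanobody libraries on Saccharomyces cerevisiae BJ5465 were galactose-induced for 36–48 hours, stained 1 hour at 4 °C with 10% biotinylated, detergent-solubilized Sf9 membrane reagent and enriched on streptavidin microbeads. FACS then separated cells into low and high (top ~1%) gates by anti-HA (expression) and streptavidin (reagent binding) fluorescence. Genes were colony-PCR amplified, MiSeq 2 × 250 sequenced and CDR-length filtered. A clone's polyreactivity label is that of its gate of origin.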

| Sequence | polyreactivity (PSR sort gate) |
| --- | --- |
| QVQLVESGGGLVQAGGSLRLSCAASGSIFTGYAMGWYRQAPGKERELVAAIRTRGGSTYYADSVKGRFTISRDNAKNTVYLQMNSLKPEDTAVYYCAKRYYGWYGNFDYWGQGTQVTVSS | high polyreactivity |
| QVQLVESGGGLVQAGGSLRLSCAASGRTFYINAMGWYRQAPGKERELVAAITWSGGRTYYADSVKGRFTISRDNAKNTVYLQMNSLKPEDTAVYYCNTRSYSYYVPYRYDYWGQGSQVTVSS | high polyreactivity |
| QVQLVESGGGLVQAGGSLRLSCAASGRTFYYNAMGWYRQAHGKERQLVADINWSGVRTYYADSVKGRFTISRDNAKNTVYLQMNSLKPEDTAVYYCAARVGPYSLAVDGFKHGYWGQGTQVTVSS | low polyreactivity |
| QVQLVESGGGLVQAGGSLRLSCAASGGIFFSYAMGWYRQAPGKERELVAAIRTNGGTTYYADSVKGRFTISRDNAKNTVYLQMNSLKPEDTAVYYCAALPGGYYDRGEYDYWGQGTQVTVSS | low polyreactivity |
| QVQLVESGGGLVQAGGTLRLSCAPSGYTFVYNAMGWYRQAPGKEREFVAAISWSGTSTRYADSVKGRFTISRDNAKNTVYLQMNSLKPEDTAVYYCAARRRSAQSGSYNHWGQGTQVTVST | high polyreactivity |
| QVQLVESGGGLVQAGGSLRLSCAASGSIFWVYAMGWYRQAPGKERELVAVIDWSGDSTYYADSVKGRFTISRDNAKNTVYLQMNSLKPEDTAVYYCSAEVYVDYTGYSYFDYPYDYWGQGTQVTVSS | low polyreactivity |
| QVQLVESGGGLDQAGGSLRLSCAASGSIFGFYAMGWSRQAPGKERELVAAITWRGGSTYYADSVKGRFTISRDNAKNTVYLQMTILKPEDTAVYYCAATSARRQTYNFAKYDYWGQGTQVTLSS | low polyreactivity |
| QVHLVESGGGLVQAGGSLRLSCAASGSTIRRYAMGWYRQAPGTERELVASITNRGGSTYYADSVKGLFTISRDNAKNTFYLQMNSLKPEDTAVYYCAKKGVYGPLNEYWGQGTQVTVSS | high polyreactivity |
| QVQLVESGGGIVQAGGSLRLSCAASGRIFGFYAMVWYRQAPGNERELVAAITINTGSTSYADSVKGRFTSSRDNAKNTDSLPMNSLKPEDTAVYYCATDAAAPKYDYWGQGPQVTVSS | low polyreactivity |
| QVQLVESGGGLVQAGGSLRLSCAASGSIFTYYAMGWYRQAPGKERELVAAIDFSGASTSYADSVKGRFTISRDNAKNTVYLQMNSLKPEDTAVYYCAAVLYWYPPYYYWGQGTQVTVSS | low polyreactivity |
| QVQLVESGGGLVQAGGSLRLSCAASGSIFRSYALGWYRQSPGKERELVASISRRGGSTYYADSVKGRFTISRDNAKNTVYLQMNSLKPEDTAVYYCAAVRYNSRVSTTPSEMYYWGQGTQVTVSS | low polyreactivity |
| QVQLVESGGGLVQAGGSLRFSCAASGRTFTYYAMGWYRQAPGKERELVASIRKSGASTYYADSVKGRFTISRDKAKNTVYLQMNSLKPEETAVYYCNTAKGHGRYEYWGQGSQVTVSS | high polyreactivity |
| QVQLVESGGGLVQAGGSLRLSCAASGRTFYRNAMGWYKQAPGKERELVAAISRSGGSTYYADSVKGRFTISRDNAKNTVYLQMNSLKPEDTAVYYCNKRYPLGTEYYYWGLGTQVTVSS | high polyreactivity |
| QVQLVESGGGLVQAGGSLRLSCAASGFTFYLYTMGWYLQAPGKERELVATITSDGGTNYADSVKGRFTISRDNAKNTVYLQMNSLKPEDTAVYYCNAASRRGSRKQAKYDYWGQGTQVTVSS | low polyreactivity |
| QVQLVESGGGLVQAGGSLRLSCAASGLIFFYYAMGWYRQAPGKERELVATINLNGGSTYYADSVKGRFTISRDNAKNSVYLQMNSLKPEDTAGYYCAAAGTKYYARYYYWGQGTQVTVSS | high polyreactivity |
| QVQHVESGGGLVQAGGSLRLSCAASGFIFAANAMGWYRQGPGKERELVAAINYRGSSTYYADSVKGRFTISRDNAKNTVNLQMNSLKPEDTAVYYCAARSGAQRGGGYWGQGTQVTVSS | high polyreactivity |
| QVQLVESGGGLVQAGGSLRLSCAASGLTFYQNAMGWYRQAPGKEREFVASITRRGGRTYYADSVKGRFTISRDNAKNTVYLQMNSLKPEDTAVYYCAATFPQYQAIKEDYWGQGTQVTVSP | high polyreactivity |
| QVQLVESGGGLVQAGGSLRLSCAASGSTFTIYAMGWYRPAPGKERELVAAIDWSGGGTDYADSVKGRFTISRDNAKNTVYLQMNSLKPEDTAVYYCAAETFYDYGGYDYWGQGTQVTVSS | low polyreactivity |
| QVQLVESGGGLVQPGGSLRLSCAASGITFIPNALGWYRQAPGKEREFVAGITWSGGRTYYADSVKGRFTISRDNATNTVYLQMNSLKPEDTAVYYCAAEPPTYKLLDFWGQGTQVTVSS | low polyreactivity |
| QVQLVESGGGLVQAGGSLRLSCAASGFTFGRKALGWYRQAPGKERELVAAISSSEHFYVRRLLKGRFTISRENAKNTVYLQMNSLKPEDTAVYYCATDNSGEVEYWGQGTQVTVSS | high polyreactivity |
| QVQLVESGGGIVQAGGRLRISCAASGFSFRKYAMGWSRQAPGKEREFVASISSTGARTYYADSVKGRFTISRDNAKNTVYLQMTSLKPEDTAVYYCAAAYGRYYYTYDYWGLGTQVTVSS | high polyreactivity |
| QVQLEESGGGLVQAGGSLRLSCAASGLIIRAYAMGWSRQAPGKERELVAAITSSSGSTYYADSVKGRFTISRDNGKNSVYLQMNSLNPEDTAVYYCNAYSTFGWYDYWGQGTQVTVSS | low polyreactivity |
| QVQLVESGGGLVQAGGSLRLSCAASGYTLGDYAMGWYRQAPGKERELVAAISSGGITSYADSVKGRFTISRDNAKNTVYLQMNSLKPEDTAVYYCNAAIVGFTRAYQYDYWGQGTQVTVSS | high polyreactivity |
| QVQLVESGGGLVQAGGSLRLSCAASGRIFYYYTMGWYRQAPGKERELVAALTRSGSSTYADSVKGRFTISRDNAKNTVYLQMNSLKAEVTAVYYCAADYIRRYDYWGQGTQVTVSS | low polyreactivity |
| QVQLVESGGCLVQAGGRLRLSCAASGSTFGRNAMGWYRQAPGKERELVAAISTSDGRTYYADSVKGRFTISRDNAKNTVYLQMNSLKPEDTAVYYCAADGETLPPRILGESEGDYWGQGTQVTVSS | low polyreactivity |
| QVQLVESGGGLVQAGGSLRLSCAASGFTFTYNDMGWYIQAPGKEREFVAAISSTGGSTYYADSVKGRFTISRDNAKNTVYLQMNSLKAEDTAVYYCAAEDSWYWDAWFDYWGQGTQVTVSS | low polyreactivity |
| QVQLVESGGGLVQAGGSLRLSCAASGRIFDKNAMGWYRQAPGKERELVAAISGGGRTYYADSVKGRFTISRDNAKNTVYLLMNSLKPEDTAVYYCNVPYYYTRGSYGYWGQGTQVTVSS | low polyreactivity |
| QDQLVESGGGLVQAGGSLRLSCAASGITFQWYAMGWYRQAPGKEREFVAAITYRGGSTYYADSVKGRFTISRDNAKNTVYLQMNSLKPEDTAVYYCARDDSRLLHPSWLDYWGKGTQVTVSS | high polyreactivity |
| QVQLVESGGGLVQAGGSLRLSCAASGRIFTGYAMGWYRQAPGKERELVAAISSSGGTTYYADSVKGRFTISRDNAKNTVYLQMNSLKPEDTAVYYCATDYSYSVDALKYLLYDYWGQGTQVTVSS | low polyreactivity |
| QVQLVESGGGLVQAGGILRLSCDASGSTFVLYAMGWYRQAPGKERELVAAIRKSGGSTYYADSVKGRFTISRDNAKIYVYLQMNSLKPEDTAVYYCNATNYIYEYHYWGQGTQVTVSS | low polyreactivity |
